The values below come from the supplement of paper PMC10598134.

The data set is described as follows: collision cross section of modified peptide (TIMS, N2, iRT-aligned); higher = larger / more extended gas-phase ion. The method in brief:
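Collision cross section values rest on the Mason-Schamp equation applied to calibrated, run-aligned mobility data from synthetic peptides. Mobility (1/K0) was calibrated with three reference ions and aligned per run to the median iRT peptide deviation, and 1–3 technical replicates of the most abundant feature per charge state were averaged. Data came from a timsTOF Pro/HT in dda-PASEF mode (nitrogen, ~2.4 mbar) after a 120-min nanoflow C18 gradient at 60 °C.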

Where [1] appears, read: charge state: 2, modification: Citrullination (R).
[2] abbreviates: charge state: 3, modification: Citrullination (R).
The mark [3] stands for this setting: charge state: 2, modification: Crotonyl.
Where [4] appears, read: charge state: 3, modification: Crotonyl.
Where [5] appears, read: charge state: 3, modification: Methyl (K).
Where [6] appears, read: charge state: 2, modification: GlyGly (K).
The mark [7] stands for this setting: charge state: 3, modification: GlyGly (K).
The mark [8] stands for this setting: charge state: 3, modification: Butyryl.
The mark [9] stands for this setting: charge state: 2, modification: hydroxyisobutyryl.
Setting [10] is: charge state: 2, modification: Propionyl.
Setting [11] is: charge state: 2, modification: Glutarylation.
[12] abbreviates: charge state: 3, modification: Glutarylation.

± gives the standard deviation.

With “SFDEVEGVFGRGGGR [_SFDEVEGVFGR(Citrullination (R))GGGR_]”, the collision cross section is, setting by setting: under setting [1], 404.76 ± 0.98 Å²; under setting [2], 503.12 Å².

Turning to LGNDFHTNKR [_LGNDFHTNK(Crotonyl)R_], the collision cross section by setting is: under setting [3], 379.22 ± 1.3 Å²; under setting [4], 445.34 ± 2 Å².

ITASLCDLKSR [_ITASLCDLK(Biotin)SR_]: the collision cross section (charge state: 2, modification: Biotin) is listed as 401.02 Å².

As for PSVSTKLISK [_PSVSTK(Dimethyl (K))LISK_], the collision cross section (charge state: 2, modification: Dimethyl (K)) stood at 362.9 ± 0.28 Å².

As for “SKLLFSNTAAQK [_SK(Methyl (K))LLFSNTAAQK_]”, the collision cross section amounted to 387.94 ± 0.83 Å² (charge state: 2, modification: Methyl (K)) and 461.44 ± 4.6 Å² under setting [5].

“LGTTPSVYGGAGGRGIR [_LGTTPSVYGGAGGR(Citrullination (R))GIR_]”: the collision cross section came to 423 ± 0.56 Å² under setting [1] and 500.66 ± 24 Å² under setting [2].

In the case of “LLFSNTAAQKLR [_LLFSNTAAQK(GlyGly (K))LR_]”, the collision cross section is, setting by setting: under setting [6], 433.64 ± 0.96 Å²; under setting [7], 492.29 ± 2 Å².

With ITGKNQVTATK [_ITGK(GlyGly (K))NQVTATK_], the collision cross section reads like this: under setting [6], 373.22 ± 0.38 Å²; under setting [7], 442.8 ± 1.1 Å².

Sequence “IHNAENIQPGEQKYEYK [_IHNAENIQPGEQK(Butyryl)YEYK_]” came in with a collision cross section under setting [8] of 530.34 ± 2.7 Å².

Take “PANEKATDDYHYEK [_PANEK(Butyryl)ATDDYHYEK_]”: the collision cross section runs as follows: (charge state: 2, modification: Butyryl) 443.05 ± 0.53 Å²; under setting [8], 509.24 ± 1.8 Å².

Under setting [5], “VLDSGAPIKIPVGPETLGR [_VLDSGAPIK(Methyl (K))IPVGPETLGR_]” displayed a collision cross section of 510.82 ± 2.8 Å².

In turn, “AGPNASIISLKSDK [_AGPNASIISLK(hydroxyisobutyryl)SDK_]” displayed a collision cross section under setting [9] of 415.63 ± 0.53 Å².

“HHTLRQAPQPQSSLQR [_HHTLR(Citrullination (R))QAPQPQSSLQR_]” came in with a collision cross section under setting [2] of 502.84 ± 0.41 Å².

On to “TQAYQDQKPGTSGLR [_TQAYQDQK(Propionyl)PGTSGLR_]”, for which the collision cross section under setting [10] is reported as 428.95 ± 1.4 Å².

Regarding “AAINQKLIETGER [_AAINQK(Gluratylation)LIETGER_]”, the collision cross section by setting is: under setting [11], 412.05 ± 1.1 Å²; under setting [12], 483.6 ± 2.4 Å².

Consider “SNEEGSEEKGPEVR [_SNEEGSEEK(Gluratylation)GPEVR_]”, for which the collision cross section amounted to 407.15 ± 0.96 Å² under setting [11] and 470.21 Å² under setting [12].

The sequence “ANEKTESSSAQQVAVSR [_ANEK(hydroxyisobutyryl)TESSSAQQVAVSR_]” yielded a collision cross section under setting [9] of 442.41 ± 0.29 Å² and a collision cross section (charge state: 3, modification: hydroxyisobutyryl) of 538.5 ± 0.04 Å².

For the sequence “SPSDSGYSYETIGKTTK [_SPSDSGYSYETIGK(Succinyl)TTK_]”, the collision cross section (charge state: 2, modification: Succinyl) was 453.06 ± 1.1 Å² and the collision cross section (charge state: 3, modification: Succinyl) came out at 530.11 ± 3 Å².

Regarding GQQGEPGPK [_GQQGEP(Hydroxyproline)GPK_], where the note is “charge state: 2, modification: Hydroxyproline”, the collision cross section is reported as 313.43 ± 0.56 Å².

For the sequence “LQDVSGQLSSSKK [_LQDVSGQLSSSK(Propionyl)K_]”, the collision cross section by setting is: under setting [10], 399.52 ± 0.65 Å²; (charge state: 3, modification: Propionyl) 471.63 Å².

As for “VDIDAPDVSIEGPDAKLK [_VDIDAPDVSIEGPDAK(GlyGly (K))LK_]”, the collision cross section reads like this: under setting [6], 470.72 ± 1.4 Å²; under setting [7], 499.87 ± 1.9 Å².

Turning to “TFGKAAGPSLSHTSGGTQSK [_TFGK(Crotonyl)AAGPSLSHTSGGTQSK_]”, the collision cross section under setting [4] is reported as 515.47 ± 1.3 Å².

As to LLEEEDSKLK [_LLEEEDSK(Crotonyl)LK_], the collision cross section under setting [3] is listed as 386.83 ± 0.27 Å².

“HFGPVPPSQGRGR [_HFGPVPPSQGR(Citrullination (R))GR_]”: the collision cross section under setting [2] was found to be 445.8 Å².

SPDEAYAIAKK [_SPDEAYAIAK(GlyGly (K))K_]: the collision cross section is listed as 383.65 ± 0.88 Å² under setting [6] and 448.77 ± 3 Å² under setting [7].
